B1: LINE1-mini (parent)
chain: GGCAGAGCUCAACACAGCGUGGCAAAGUGGCUGUGGCUAGACUGCC

Variants of: B1
Assay: self-cleavage, relative activity (ratio to wild type); higher = more cleavage; in vitro, sequencing; the parent is a self-cleaving ribozyme

Point of comparison: GGCAGAGCUCCACACAGCGUGGCAAAGUGGCGGUGGCUAGACUGCC [A11C U32G], self-cleavage 0.03. Against it:
- GGCAGAGCUCGACACAGCGUCGCAAAGUGGCUGUGGCUAGACUGCC [A11G G21C] — lower, 0.02
- GGCAGAGCUCGACACAGCGUAGCAAAGUGGCUGUGGCUAGACUGCC [A11G G21A] — higher, 0.05
- GGCAGAGCUCGACACAGCGUGCCAAAGUGGCUGUGGCUAGACUGCC [A11G G22C] — lower, 0.02
- GGCAGAGCUCGACACAGCGUGACAAAGUGGCUGUGGCUAGACUGCC [A11G G22A] — the same, 0.03
- GGCAGAGCUCGACACAGCGUGUCAAAGUGGCUGUGGCUAGACUGCC [A11G G22U] — higher, 0.05
- GGCAGAGCUCGACACAGCGUGGCAAAGUGGCUGUGGAUAGACUGCC [A11G C37A] — lower, 0.02
- GGCAGAGCUCGACACAGCGUGGCAAAGUGGCUGUGGGUAGACUGCC [A11G C37G] — the same, 0.03
- GGCAGAGCUCGACACAGCGUGGCAAAGUGGCUGUGGUUAGACUGCC [A11G C37U] — higher, 0.05
- GGCAGAGCUCGACACAGCGUGGCAAAGUGGCUGUGGCUAGACUGCU [A11G C46U] — lower, 0.02
- GGCAGAGCUCGACACAGCGUGGCAAAGUGGCUGUGGCUAGACUGCA [A11G C46A] — higher, 0.04
- GGCAGAGCUCGACACAGCGUGGCAAAGUGGCUGUGGCUAGACUGCG [A11G C46G] — lower, 0.02
- GGCAGAGCUCGACACAGCGUGGCAAAGUGCCUGUGGCUAGACUGCC [A11G G30C] — higher, 0.04
- GGCAGAGCUCGACACAGCGUGGCAAAGUGACUGUGGCUAGACUGCC [A11G G30A] — higher, 0.04
- GGCAGAGCUCGACACAGCGUGGCAAAAUGGCUGUGGCUAGACUGCC [A11G G27A] — lower, 0.02
- GGCAGAGCUCGACACAGCGUGGCAAAUUGGCUGUGGCUAGACUGCC [A11G G27U] — the same, 0.03
- GGCAGAGCUCGACACAGCGUGGCAAACUGGCUGUGGCUAGACUGCC [A11G G27C] — the same, 0.03
- GGCAGAGCUCCACACAGCGUGGCAAAGUGGCCGUGGCUAGACUGCC [A11C U32C] — higher, 0.04
- GGCAGAGCUCCACACAGCGUGGCAAAGUGGCAGUGGCUAGACUGCC [A11C U32A] — higher, 0.04
- GGCAGAGCUCGACACAGCGUGGCGAAGUGGCUGUGGCUAGACUGCC [A11G A24G] — lower, 0.02
- GGCAGAGCUCGACACAGCGUGGCUAAGUGGCUGUGGCUAGACUGCC [A11G A24U] — lower, 0.02
- GGCAGAGCUCGACACAGCGUGGCCAAGUGGCUGUGGCUAGACUGCC [A11G A24C] — the same, 0.03
- GGCAGAGCUCGACACAACGUGGCAAAGUGGCUGUGGCUAGACUGCC [A11G G17A] — higher, 0.04
- GGCAGAGCUCGACACACCGUGGCAAAGUGGCUGUGGCUAGACUGCC [A11G G17C] — higher, 0.04
- GGCAGAGCUCGACACAUCGUGGCAAAGUGGCUGUGGCUAGACUGCC [A11G G17U] — the same, 0.03
- GGCAGAGCUCGACACAGCGUGGCAAAGUGGCUGUGGCUAGAAUGCC [A11G C42A] — lower, 0.02
- GGCAGAGCUCGACACAGCGUGGCAAAGUGGCUGUGGCUAGAUUGCC [A11G C42U] — lower, 0.01
- GGCAGAGCUCGACACAGCGUGGCAAAGUGGCUGUGGCUAGAGUGCC [A11G C42G] — lower, 0.01
- GGCAGAGCUCCACACAGCGUGGCAAAGUGGCUGUGGCCAGACUGCC [A11C U38C] — higher, 0.04
- GGCAGAGCUCCACACAGCGUGGCAAAGUGGCUGUGGCGAGACUGCC [A11C U38G] — lower, 0.02
- GGCAGAGCUCCACACAGCGUGGCAAAGUGGCUGUGGCAAGACUGCC [A11C U38A] — lower, 0.02
- GGCAGAGCUCGACACAGCGUGGCAAAGUCGCUGUGGCUAGACUGCC [A11G G29C] — higher, 0.3
- GGCAGAGCUCGACACAGCGUGGCAAAGUUGCUGUGGCUAGACUGCC [A11G G29U] — the same, 0.03
- GGCAGAGCUCGACACAGCGUGGCAAAGUAGCUGUGGCUAGACUGCC [A11G G29A] — higher, 0.04
- GGCAGAGCUCGACACAGCGUGGCAAAGUGGCUGUGGCUAGACUGCC [A11G] — higher, 0.04
- GGCAGAGCUCCACACAGCGUGGCAAAGUCGCUGUGGCUAGACUGCC [A11C G29C] — higher, 0.05
- GGCAGAGCUCCACACAGCGUGGCAAAGUAGCUGUGGCUAGACUGCC [A11C G29A] — higher, 0.06
- GGCAGAGCUCCACACAGCGUGGCAAAGUUGCUGUGGCUAGACUGCC [A11C G29U] — higher, 0.07
- GGCAGAGCUCCACACAGCGUGGCAAAGUGGCUUUGGCUAGACUGCC [A11C G33U] — higher, 0.04
- GGCAGAGCUCCACACAGCGUGGCAAAGUGGCUAUGGCUAGACUGCC [A11C G33A] — higher, 0.04
- GGCAGAGCUCCACACAGCGUGGCAAAGUGGCUCUGGCUAGACUGCC [A11C G33C] — lower, 0.02
- GGCAGAGCUCGACUCAGCGUGGCAAAGUGGCUGUGGCUAGACUGCC [A11G A14U] — the same, 0.03
- GGCAGAGCUCGACCCAGCGUGGCAAAGUGGCUGUGGCUAGACUGCC [A11G A14C] — lower, 0.02
- GGCAGAGCUCGACGCAGCGUGGCAAAGUGGCUGUGGCUAGACUGCC [A11G A14G] — lower, 0.02
- GGCAGAGCUCGACACAGCGUGGCACAGUGGCUGUGGCUAGACUGCC [A11G A25C] — the same, 0.03
- GGCAGAGCUCGACACAGCGUGGCAUAGUGGCUGUGGCUAGACUGCC [A11G A25U] — lower, 0.02
- GGCAGAGCUCGACACAGCGUGGCAGAGUGGCUGUGGCUAGACUGCC [A11G A25G] — higher, 0.05
- GGCAGAGCUCGACACAGCGUGGCAAAGUGGCUGUGGCUAGACUGUC [A11G C45U] — the same, 0.03
- GGCAGAGCUCGACACAGCGUGGCAAAGUGGCUGUGGCUAGACUGAC [A11G C45A] — the same, 0.03
- GGCAGAGCUCGACACAGCGUGGCAAAGUGGCUGUGGCUAGACUGGC [A11G C45G] — the same, 0.03
- GGCAGAGCUCCACACAGCGUGGCAAAGCGGCUGUGGCUAGACUGCC [A11C U28C] — the same, 0.03
- GGCAGAGCUCCACACAGCGUGGCAAAGAGGCUGUGGCUAGACUGCC [A11C U28A] — higher, 0.06
- GGCAGAGCUCCACACAGCGUGGCAAAGGGGCUGUGGCUAGACUGCC [A11C U28G] — higher, 0.05
- GGCAGAGCUCGACACAGCGUGGCAAUGUGGCUGUGGCUAGACUGCC [A11G A26U] — lower, 0.02
- GGCAGAGCUCGACACAGCGUGGCAAGGUGGCUGUGGCUAGACUGCC [A11G A26G] — higher, 0.04
- GGCAGAGCUCGACACAGCGUGGCAACGUGGCUGUGGCUAGACUGCC [A11G A26C] — the same, 0.03
